{"source": "paper PMC3102714", "about": "“OsSpo11-4, a Rice Homologue of the Archaeal TopVIA Protein, Mediates Double-Strand DNA Cleavage and Interacts with OsTopVIB” (PLoS ONE, 2011)", "binders": {"B1": {"name": "pET-OsSpo11-4 fusion protein (natural protein, Oryza sativa L. ssp. japonica, UniProt Q2QM00 1-487, looked up)", "chain": "MDDSTDDDSYHPRKHYAYDRQVSSSRWRTSREYIRGPGPETHTTESAQDGQDPPAGVYSYGYFSGSGNDPQVQGHFVPEIQKYNPYVIFKGEQLPVPIWELPEEKVQDFHDRYFIAKDKSRVEARKTLNRLLEGNINTIERGHGYKFNIPKYTDNMEFNEEVKVSLAKAGKTISRSFCNANQREVASRTGYTIDLIERTLGAGLNISKRTVLYTNKDLFGDQSKSDQAINDICALTNIRRGSLGIIAAEKGIVVGNIFLELTNGKSISCSIGVQIPHRLDQIKDVCVEIGSRNIEYILVVEKHTMLNYLLEMDYHTNNNCIILTGCGMPTLQTRDFLRFLKQRTGLPVFGLCDPDPEGISILATYARGSCNSAYDNFNISVPSICWVGLSSSDMIKLNLSETNYSRLSREDKTMLKNLWQDDLSDVWKRRIEEMISFDKKASFEAIHSLGFDYFATNLLPDMINKVREGYVQVQEKKEPQDTEASED", "notes": "OsSpo11-4, Oryza sativa L. ssp. japonica, predicted protein of 487 amino acids; full-length ORF amplified with primers P5 and P6, cloned into EcoRI/XhoI of pET-32a(+); fusion about 72 kD; Forward primer P5 lacks the ATG GAT that primer P15 has, so the insert may lack the first two codons; also called pET-Spo11-4"}}, "molecular_target": "T1, GST-OsTopVIB fusion protein (Oryza sativa L. ssp. japonica, UniProt Q6H442 1-696)", "T1 construct": "OsTopVIB, Oryza sativa L. ssp. japonica; ORF amplified with primers P17 and P18, cloned BamHI/BglII into pESP-2; fusion about 103 kD; also called OsTopVIB-GST fusion; GST-TopVIB", "T1 sequence (looked up)": "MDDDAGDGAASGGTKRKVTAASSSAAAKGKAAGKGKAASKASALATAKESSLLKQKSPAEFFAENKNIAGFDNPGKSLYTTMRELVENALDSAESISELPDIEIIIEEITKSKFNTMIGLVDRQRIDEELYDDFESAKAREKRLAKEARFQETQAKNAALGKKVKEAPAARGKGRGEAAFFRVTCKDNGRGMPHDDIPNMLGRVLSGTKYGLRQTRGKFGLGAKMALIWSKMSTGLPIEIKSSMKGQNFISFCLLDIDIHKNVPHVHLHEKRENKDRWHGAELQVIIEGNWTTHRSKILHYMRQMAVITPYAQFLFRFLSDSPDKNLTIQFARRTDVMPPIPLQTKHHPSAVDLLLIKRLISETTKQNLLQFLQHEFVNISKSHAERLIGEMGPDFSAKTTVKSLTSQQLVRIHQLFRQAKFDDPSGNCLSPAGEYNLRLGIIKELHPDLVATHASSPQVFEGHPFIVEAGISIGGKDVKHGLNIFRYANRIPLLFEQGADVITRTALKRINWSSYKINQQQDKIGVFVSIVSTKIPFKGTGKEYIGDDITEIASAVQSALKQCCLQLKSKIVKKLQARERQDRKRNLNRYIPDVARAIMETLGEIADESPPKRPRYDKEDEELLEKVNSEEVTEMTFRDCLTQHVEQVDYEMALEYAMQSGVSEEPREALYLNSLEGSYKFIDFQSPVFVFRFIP", "assay": "pull-down; GST-OsTopVIB preabsorbed to Glutathione Sepharose resin; purified pET-OsSpo11-4 precleared with GST resin; 0.5% NP-40 lysis buffer (20 mM Tris-HCl pH 8.0, 200 mM NaCl, 1 mM EDTA), 4°C, 6 h; western blot with antibody against pET-OsSpo11-4", "conditions": "both partners purified"}
{"binder": "B1", "values": [{"measurement": "binding result", "result": "binds"}]}
